This series can be described thus: yeast display, Sf9 membrane polyspecificity reagent, FACS + sequencing; frameworks hold sequencing errors. The procedure, abridged: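 Galactose-induced (36–48 hours) yeast carrying a synthetic nanobody display library were exposed to 10% biotinylated, detergent-solubilized Sf9 membrane reagent at 4 °C for 1 hour. FACS followed streptavidin microbead enrichment, using low and high (top ~1%) gates for expression (anti-HA) and reagent binding (streptavidin). Colony PCR, MiSeq 2 × 250 sequencing and CDR-length filtering followed. Labels for polyreactivity reflect the gate of origin.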
As to “QVQLVESGGGLVQAGGSLRISCAASGFTFSQYAMGRYRQAPGKERELVAAISVSGGTTYYADSVKGRFTISRDNAKNTVYLQMNSLKPEDTAVYYCDARTPFSSSPYVNTSGYYYWGQGSQVTVSS”, the “polyreactivity (PSR sort gate)” value is reported as “high polyreactivity”.
For the sequence “QVQLVESGGGLVQAGGSLRISCAASGFTFSYYAMGWYRQAPGKERDLVAAISGRTGRTYYADSVKGRFTISRDNAKNTVYLQMNSLKPEDTAVYYCAAGYTFSRYDDDYWGQGTQVTVSW”, the “polyreactivity (PSR sort gate)” value is “low polyreactivity”.
In the case of “QVQLVESGGGLVQAGGSLRISCAASGFTLEPNTMGWYRQAPWKERELVAGISWSGGSTYYADSVKGRFTISRDNAKNTVYLQMNSLKPEDTAVYYCNAPPVRRSIVYDRRDYWGQGTQVTVSS” it was “low polyreactivity”; in that of “QVQLVESGGGLVQAGGSLRISCAASGFTYSSYAMGWYRQATGKERELVAAISTRGGSTYYADSVKGRFTISRDNAKNTVYLQMNSLKPEDTAVYYCSTGGRGGRRYEYWGQGTQVTVSS”, “low polyreactivity”.
In the case of “QVQLVESGGGLVQAGGSLRISCAASGGIFNYYTMGWYRQAPGKERELVAAINSSGGNTHYADSVKGRFTISRDNAKNTVYLQMNSLKPEDTAVYYCNADARSVWFYRVDYWGQGTQVTVSS” it was “low polyreactivity”.
Next, “QVQLVESGGGLVQAGGSLRISCAASGGIFQRYDMGWYRKATGKERELVAAITRSGGSTYYADSVKGRFTISRDNAKNTVYLQMNSLKPEDTAVYYCAARTYGCYEYWGQGTQVTVSS”: “high polyreactivity”; “QVQLVESGGGLVQAGGSLRISCAASGGTFTNYAMGWYRQAPGKERELVAAITDSGATTYYADSVKGRFTISRDNAKNTVYLQMNSLKPEDTAVYYCNAELDLYTDFDYWGQGTQVTVSS”: “low polyreactivity”.
In the case of “QVQLVESGGGLVQAGGSLRISCAASGIIFAYAMGWYRQAPGKERELVAAISGRDGSTYYADSVKGRFTISRDNAKNTVYLQMISLKQEDTAVYFCAAGDYYLQDNYWGQGTQVTVSS”, the “polyreactivity (PSR sort gate)” value was “low polyreactivity”.
For the sequence “QVQLVESGGGLVQAGGSLRISCAASGIILSDNAMGWYRQAPGKEREFVAAITGAGGSTYYADSVKGRFTISRDNAKNTVYLQMNSLKPEDTAVYYCAAESYPLSYSSATLSPSYEYWGQGTQVTVSS”, the “polyreactivity (PSR sort gate)” value is recorded as “low polyreactivity”.
In the case of “QVQLVESGGGLVQAGGSLRISCAASGITFFRNAMGWYRQAPGKERELVATITKSGGSTYYADSVKGRFTISRDNAKNTVYLQMNSLKPEDTAVYDCAAVRRYPVKYVAYDYWGQGTQVTVSS” it was “low polyreactivity”.
Regarding “QVQLVESGGGLVQAGGSLRISCAASGITFYFNAMGWFRQAPGKERDLVAVITSVGSTNYADSVKGRFTISRDNAKNTDYIQMNSLKPEDTAVYYCYRTSYVKTPTKRYNYWGQGTQVTVSS”, the “polyreactivity (PSR sort gate)” value is reported as “low polyreactivity”.
As to “QVQLVESGGGLVQAGGSLRISCAASGITFYRYTMGWYRQAPGKERELVAAISRSGSSTYYADSVKGRFTISRDNAKNTVDLQMNSLIPEDTAVYYCASRFGDMGYWGQGTQVTVSA”, the “polyreactivity (PSR sort gate)” value is “high polyreactivity”.
Next, “QVQLVESGGGLVQAGGSLRISCAASGITLYGNVMGWYRQAPGKERELVAAISGGSTFYADSVKGRFTISRDNAKNTVYLQMNSLKPEDTAVYYCAAEWYGYGSNVPYYYWGQGTQVTVSS”: “low polyreactivity”; “QVQLVESGGGLVQAGGSLRISCAASGLSFYRYTMGWYRHAPGKEREFVAAITAGGSTYYADSVKGRFTISRDNAKNPVYLQMNRLKPEDTAVYYCAPRVLMEQYTYIKYDYWGQGTQVTVSS”: “high polyreactivity”; “QVQLVESGGGLVQAGGSLRISCAASGLTFDYYAMGSYRQAPGKERELVAAITSGSITYYADSVKGRFTISRDNAKNTVYLQMNSLKPEDTAVYYCAAKRTSFTARYGYWGLGTQVTVSS”: “high polyreactivity”.
On to “QVQLVESGGGLVQAGGSLRISCAASGRIFAQYVMGWYRQAPGKERELVAAISSGGSTYYADSVKGRFTISRDNAKNTVYLQMNSLKPEDTAVYYCAARSRAHRVGRQPFDYWGQGTQVTVSS”, for which the “polyreactivity (PSR sort gate)” value is “high polyreactivity”.
As to “QVQLVESGGGLVQAGGSLRISCAASGRIFDNYAMGWNRQAPGKERELVAAISVSGDSTYYADSVKGRFTISRDNAKNTVYLQMNSLKPEDTAVYYCAVDPDSYWYLTWADEMYYWGQGTQVTVSS”, the “polyreactivity (PSR sort gate)” value is “high polyreactivity”.
Next, “QVQLVESGGGLVQAGGSLRISCAASGRIFFAYAMGWYRQAPGKERELVASITWSGSSTTYADSVKGRFTISRDNAKNTVYLQMNSLKPDDTAVYFCGSDPYFWGYHFRRYGSRGQGTQVTVSS”: “low polyreactivity”; “QVQLVESGGGLVQAGGSLRISCAASGRIFKVYAMGWYRQAPGKERELVAAMSRSGGSTYYADSVKGRFTISRDNAKKTVYFQMNSLKPEDTAVYYCHAYFVYGHACGYDYWGQGSQVTVSS”: “high polyreactivity”.
In the case of “QVQLVESGGGLVQAGGSLRISCAASGRIFLFYAMGWYRQAPGKEREWVAAITYSGSTYYADSVKGRFTISRDNAKNTVYLQMNSLIPEDTAVYYCNARYRTYAGTYGYNYWGQGTQVTVSS” it was “high polyreactivity”; in that of “QVQLVESGGGLVQAGGSLRISCAASGRIFRQNTMGWYRQAPGKERELVAAISRSGGSTYYADSVKGRFTISRENAKNTVYLQMNSLKPEDTAVYYCNKVTYIVAIWGSDIYVPSEFGYWGQGTQVTVSS”, “high polyreactivity”; in that of “QVQLVESGGGLVQAGGSLRISCAASGRIFRYYAMGWYRQAPGKERELVAAISNSGGRTYYADSVKRRFTISRDNAKNSVYLQMNSLKPEDTAVYYCKKAHSYRGVSDSDMGYWGQGTEVTVSS”, “high polyreactivity”.
In the case of “QVQLVESGGGLVQAGGSLRISCAASGRIFVVYVMGWYRQAPGKEREFVAAITWGGGNTYYADSVKGRFTISRDNAKNTVYLQMNSLKPEDTAVYYCNAVWYWGDMDYWGQGTQVTVSS” it was “low polyreactivity”; in that of “QVQLVESGGGLVQAGGSLRISCAASGRIYPVYVMGWYRQAPGKERELVAAINYNGGSTTYADSVKGRFTISRDNAKNTVYLQMNSLKPADTAVYYCAAGTPAYVETEYEYWGQGTQVTVSS”, “low polyreactivity”; in that of “QVQLVESGGGLVQAGGSLRISCAASGRNFPNYAMGWYRQAPGKERELVAAITSSGGSTYYADSVKGRFTISRDNAKNTVYLQMNSLKPEDTAVYYCNAGSWIRNDYWGQGTQVTVSS”, “high polyreactivity”.
With “QVQLVESGGGLVQAGGSLRISCAASGRSFWTYAMGWYRQAPGKERELVAAITWRGGSTSYADSVTGRFTISRDTAKNTVYLQMHSLKPEDTAVYYCAADTYSYLRGTYEYDYWGQGTQVTVSS”, the “polyreactivity (PSR sort gate)” value was “high polyreactivity”.
Next, “QVQLVESGGGLVQAGGSLRISCAASGRTFGSYSMGWYRQAPGNEREEVAAISLSAGSTYYADYVKGRFTISRDNAKNTVYLQMNRLKAEDTAVYYCAAGTKWYSQVYIYFYWGQGTQVTVSS”: “low polyreactivity”; “QVQLVESGGGLVQAGGSLRISCAASGRTFLKNTMGRYRQAPGKERELVAVITRNGDSTYADSVKGRFTISRDNAKNTVYLQMNSLKPEDTAVYYCATTYRDGVYELTTFDYWGQGTQVTVSS”: “low polyreactivity”; “QVQLVESGGGLVQAGGSLRISCAASGRTFPRYAMGWYRQAPGKERELVAGISWSGGRTYYADSVKGRFTISRDNAKNTVYLQMNSLKPEDTAVYYCAVVSKNLSYRTTFYYWGQGTQVTVSS”: “high polyreactivity”.
Consider “QVQLVESGGGLVQAGGSLRISCAASGRTFRVYSMGWYIQAPGKEWELVASISARSGSTYYADSVKGRFTISRDNAKNTVYLQLNSVKPEDTAVYYSAAARRGFKYDYWGQGTQVTVSS”, for which the “polyreactivity (PSR sort gate)” value was “high polyreactivity”.
Next, “QVQLVESGGGLVQAGGSLRISCAASGRTFVVYAMGWYRPAPGKERELVAAIRGSGGSTNYADSVKGRFTISRDNAKNTVYLQMNSLKPEDTAVYYCAATSSLGDFRYDYWGQGTQVTVSS”: “high polyreactivity”; “QVQLVESGGGLVQAGGSLRISCAASGRTFYTYDMGWYRQAPGKERQLVAAISSSGSTYYADSVKGRFTISRDNAKNTVYLQMNSLKPEDTAGYYCNARTSRYRRGGDSWGQGTQVTVSS”: “high polyreactivity”; “QVQLVESGGGLVQAGGSLRISCAASGSIFARYAMGWYRQAPGKERELVAAISKRGGSTYYADSVKGRFTISRDNAKNTVYLQMNSLKPEDTAVYYCAAVSYPPYTTKMDYWGQGTLVTVSS”: “high polyreactivity”.
Next, “QVQLVESGGGLVQAGGSLRISCAASGSIFDPYAMGWYRQAPGKERELVAAITSGGSTYYADSVKGRFTISRDNAKNTVYLQMNSLIPEDTAVYYCAKDFDIYYSKYDYWGQGTQVTVSS”: “low polyreactivity”; “QVQLVESGGGLVQAGGSLRISCAASGSIFGLYAMGWYRQAPGKERELVAAINQSGGSTSYADSVKGRFTISRDNAKNTVYLQMNSLKPEDTAVYYCNRVRLNSEGFDYWGQGTQVTVSS”: “low polyreactivity”; “QVQLVESGGGLVQAGGSLRISCAASGSIFGYAMACYRQGPGKERELVAAITSSGGSTYYADSVKGRFTISRDNAKNTVYLHKNSLKPEDTAGYYCNAYLRWYITLLRFLAGGDYWGQGYQVTVSS”: “high polyreactivity”.
In the case of “QVQLVESGGGLVQAGGSLRISCAASGSIFGYYAMGWYRHSPGTERELVAAISWSDGSTYYADSVKGRFTISRDNAKNTVYLQMNSLKPEDTAVYYCAARFTPYITSDDGHYDYWGQGTQVTVSS” it was “low polyreactivity”; in that of “QVQLVESGGGLVQAGGSLRISCAASGSIFKKYAMGWYIQAPGKEREFVAAITRGTYYADSVKGRFTISRDNAKNTVYLQMNSLKPEDTAVYDCYREYWGRGYYRVRGEYDYWGQGTQVTVSS”, “low polyreactivity”.
As to “QVQLVESGGGLVQAGGSLRISCAASGSIFSWKDMGWYRQAPGKERELVAAITSGGSTYYADSVKGRFTISRDNAKNTVYLQMNSLKPEDTAVYYCAAVFLLFGFEWSYDYWGQGTQVTVTS”, the “polyreactivity (PSR sort gate)” value is recorded as “low polyreactivity”.
In the case of “QVQLVESGGGLVQAGGSLRISCAASGSIFVKNAMGWYRQAPGKEREFVAAITTSGGSTNYADSVKGRFTISRDNAKNTVYLQMNSLKPEDTAVYYCNTDIFPAAYDYWGQGTQVTVSS” it was “low polyreactivity”.
Next, “QVQLVESGGGLVQAGGSLRISCAASGSIFVLYAMGWYRQAPGKERELVATITWSGDSTYYADSVKGRFTISRDNAKNTVYLQMNSLKPEDTAVYYCNKRIWDQYDWGQGTQVTVSS”: “low polyreactivity”.

The values above are taken from the nanobody polyreactivity screen of Harvey et al. (2022).
